Experimental data published in US20170015742A1 (published 2017).

T1: recombinant cynomolgus PDGF-BB (cynomolgus monkey, UniProt P01127 82-190 (human entry), limits assumed)
T1 chain: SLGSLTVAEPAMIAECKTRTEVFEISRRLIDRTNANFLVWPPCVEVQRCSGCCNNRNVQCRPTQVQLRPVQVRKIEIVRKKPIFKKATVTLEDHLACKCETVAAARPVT


Assays:
[1] = target: T2, recombinant human VEGF-A 165 (human, UniProt P15692 207-395); test: receptor competition ELISA, biotinylated hVEGF165 binding to coated hVEGF-R2-Fc
T2 construct: also called huVEGF-A165; hVEGF165
T2 sequence (P15692 other isoform, or with tags, fused parts or gaps limits assumed): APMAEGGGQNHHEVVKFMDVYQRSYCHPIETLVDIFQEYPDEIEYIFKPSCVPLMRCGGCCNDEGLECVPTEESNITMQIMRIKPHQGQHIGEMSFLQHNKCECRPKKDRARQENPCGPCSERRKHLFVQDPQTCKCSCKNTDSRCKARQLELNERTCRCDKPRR
Protocol: To identify molecules that could block the binding of hVEGF₁₆₅ to the hVEGF-R2 (KDR/Flk-1) receptor, a competition ELISA was performed. […] Plates were then washed four times with wash buffer (TBS, 0.05% Tween-20) and blocked with Superblock blocking buffer (Thermo Scientific, cat#37535). […] The pre-incubated sample/hVEGF₁₆₅ complex was added to the coated plate at 50 μL in duplicate and incubated for 30 minutes at 25° C. with shaking. Following incubation, plates were washed four times with wash buffer. Streptavidin-polyHRP-40 (Fitzgerald cal#65r-s104phrp) was diluted in assay diluent (10% Superblock containing 0.05% surfactamps) and added to plates (50 μL) for 45 minutes at 25° C. with shaking. Plates were washed four times with wash buffer and developed with the addition of Enhanced K-blue TMB substrate (Neogen cat#308177). The reaction was stopped with 2N sulfuric acid (VWR, cat# BDH3500-1) and the absorbance was read at 450 nm-570 nm. A decrease in observed optical density indicates the test molecule is blocking the hVEGF₁₆₅ binding to the hVEGF-R2-Fc. Data was analyzed using Softmax Pro 4.8 software and IC₅₀ values calculated using a sigmoidal dose response (variable slope) fit in GraphPad Prism 5.
Anti-VEGF-A antibodies derived from rat hybridomas were characterized for binding, function and cross-reactivity in a panel of assays. Supernatants were tested for the ability to bind hVEGF₁₆₅ (Example 1.3) and block binding of hVEGF₁₆₅ to hVEGFR2 in a competition ELISA format (Example 1.4).

[2] = target: recombinant human VEGF165 (human, UniProt P15692 207-395); test: cell-based or functional assay
Sequence of recombinant human VEGF165 (P15692 other isoform, or with tags, fused parts or gaps limits assumed): as above

[3] = target: recombinant human PDGF-BB (human, UniProt P01127 82-190); test: cell-based or functional assay
[4] = target: T1, recombinant cynomolgus PDGF-BB; test: cell-based or functional assay
[5] = target: recombinant murine PDGF-BB (mouse, UniProt P31240 82-190); test: cell-based or functional assay
Sequence of recombinant murine PDGF-BB (P31240 82-190 limits assumed): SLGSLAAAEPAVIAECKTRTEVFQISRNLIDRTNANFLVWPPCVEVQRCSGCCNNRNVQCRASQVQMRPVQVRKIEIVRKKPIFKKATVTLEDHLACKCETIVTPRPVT

Binder	IC50 [1] [nM]	also measured
BEW-1B10-B9-C3 (antibody, V domains shown, Rat hybridoma anti-human VEGF-A monoclonal antibody, isotype IgG2a/kappa) VH: EVQLVESGGGLVQPGRSLKLSCAASGFSFSKYDMAWFRQTPTKGLEWVASITTSGVGTYYRDSVKGRFTVSRDNAKSTLYLQMDSLRSEDTATYYCARGYGAMDAWGQGTSVTVSS VL: DIQMTQSPASLSASLEEIVTITCKASQDIDDYLSWYQQKPGKSPQLVIYAATRLADGVPSRFSGSGSGTQYSLKISRLQVDDSGIYYCLQSSSTPWTFGGGTNLELK	0.326	–
CODV015 cross-over DVD-Ig (PR-1571827) (bispecific antibody, human IgG1, kappa, L234A L235A) heavy: EVQLVQSGSELKKPGASVKVSCKASGYTFTNYGMYWVRQAPGQGLEWMGWINTETGKPTYADDFKGRFVFSLDTSVSTAYLQISSLKAEDTAVYYCARTNYYYRSYIFYFDYWGQGTMVTVSSGGGGSGGGEFVLTQSPGTLSLSPGERATLSCERSSGDIGDSYVSWYQQKPGQAPRLVIYADDQRPSGIPDRFSGSGSGTDFTLTISRLEPEDFAVYYCQSYDINIDIVFGGGTKVEIKGGGSGASTKGPSVFPLAPSSKSTSGGTAALGCLVKDYFPEPVTVSWNSGALTSGVHTFPAVLQSSGLYSLSSVVTVPSSSLGTQTYICNVNHKPSNTKVDKKVEPKSCDKTHTCPPCPAPEAAGGPSVFLFPPKPKDTLMISRTPEVTCVVVDVSHEDPEVKFNWYVDGVEVHNAKTKPREEQYNSTYRVVSVLTVLHQDWLNGKEYKCKVSNKALPAPIEKTISKAKGQPREPQVYTLPPSREEMTKNQVSLTCLVKGFYPSDIAVEWESNGQPENNYKTTPPVLDSDGSFFLYSKLTVDKSRWQQGNVFSCSVMHEALHNAYTQKSLSLSPGK light: EVTLRESGPALVKPTQTLTLTCTFSGFSLSTYGMGVGWIRQPPGKALEWLANIWWDDDKYYNPSLKNRLTISKDTSKNQVVLTMTNMDPVDTATYYCARIESIGTTYSFDYWGQGTMVTVSSGGGGSGGGDTVLTQSPATLSLSPGERATLSCRASESVSTHMHWYQQKPGQAPRLLIYGASNLESGVPARFSGSGSGTDFTLTISSLEPEDFAVYFCQQSWNDPFTFGQGTKLEIKGGSRTVAAPSVFIFPPSDEQLKSGTASVVCLLNNFYPREAKVQWKVDNALQSGNSQESVTEQDSKDSTYSLSSTLTLSKADYEKHKVYACEVTHQGLSSPVTKSFNRGEC	–	HMVEC-d hVEGF165 Potency IC50 [2]: 0.104 nM; NIH-3T3 hPDGF-BB Potency IC50 [3]: 0.075 nM
CODV016 cross-over DVD-Ig (PR-1571828) (bispecific antibody, human IgG1, kappa, L234A L235A) heavy: EVQLVQSGSELKKPGASVKVSCKASGYTFTNYGMYWVRQAPGQGLEWMGWINTETGKPTYADDFKGRFVFSLDTSVSTAYLQISSLKAEDTAVYYCARTNYYYRSYIFYFDYWGQGTMVTVSSGGGGSGGGEFVLTQSPGTLSLSPGERATLSCERSSGDIGDSYVSWYQQKPGQAPRLVIYADDQRPSGIPDRFSGSGSGTDFTLTISRLEPEDFAVYYCQSYDINIDIVFGGGTKVEIKGGGSGASTKGPSVFPLAPSSKSTSGGTAALGCLVKDYFPEPVTVSWNSGALTSGVHTFPAVLQSSGLYSLSSVVTVPSSSLGTQTYICNVNHKPSNTKVDKKVEPKSCDKTHTCPPCPAPEAAGGPSVFLFPPKPKDTLMISRTPEVTCVVVDVSHEDPEVKFNWYVDGVEVHNAKTKPREEQYNSTYRVVSVLTVLHQDWLNGKEYKCKVSNKALPAPIEKTISKAKGQPREPQVYTLPPSREEMTKNQVSLTCLVKGFYPSDIAVEWESNGQPENNYKTTPPVLDSDGSFFLYSKLTVDKSRWQQGNVFSCSVMHEALHNAYTQKSLSLSPGK light: EVTLRESGPALVKPTQTLTLTCTFSGFSLSTYGMGVGWIRQPPGKALEWLANIWWDDDKYYNPSLKNRLTISKDTSKNQVVLTMTNMDPVDTATYYCARIESIGTTYSFDYWGQGTMVTVSSGGGGSDTVLTQSPATLSLSPGERATLSCRASESVSTHMHWYQQKPGQAPRLLIYGASNLESGVPARFSGSGSGTDFTLTISSLEPEDFAVYFCQQSWNDPFTFGQGTKLEIKGGSRTVAAPSVFIFPPSDEQLKSGTASVVCLLNNFYPREAKVQWKVDNALQSGNSQESVTEQDSKDSTYSLSSTLTLSKADYEKHKVYACEVTHQGLSSPVTKSFNRGEC	–	HMVEC-d hVEGF165 Potency IC50 [2]: 0.115 nM; NIH-3T3 hPDGF-BB Potency IC50 [3]: 0.096 nM
BEW-9E7-B4 (antibody, V domains shown, Rat hybridoma anti-human VEGF-A monoclonal antibody, isotype IgG2b/kappa) VH: QIQLVQSGPELKKPGESVKISCKASGYTFTNYGMYWVKQAPGQGLQYMGWIDTETGKPTYADDFKGRFVFFLETSASTAYLQINNLRNEDMATYFCARWGYTSDYYYGWFPDWGQGTLVTVST VL: DTVLTQSPALAVSPGERVSISCRASEGVNSYMHWYQQNPGQQPKLLIYKASNLASGVPARFSGSGSGTDFTLNIHPVEADDTATYFCQQNWNVPLTFGSGTKLEIK	0.207	–
4G8.3-LS-9E8.4 (g) anti-VEGF-A/anti-PDGF-BB DVD-Ig (PR-1572106) (bispecific antibody, human IgG1, kappa, L234A L235A) heavy: EVQLVQSGSELKKPGASVKVSCKASGYTFTNYGMYWVRQAPGQGLEWMGWINTETGKPTYADDFKGRFVFSLDTSVSTAYLQISSLKAEDTAVYYCARTNYYYRSYIFYFDYWGQGTMVTVSSASTKGPSVFPLAPEVTLRESGPALVKPTQTLTLTCTFSGFSLSTYGMGVGWIRQPPGKALEWLANIWWDDDKYYNPSLKNRLTISKDTSKNQVVLTMTNMDPVDTATYYCARIESIGTTYSFDYWGQGTMVTVSSASTKGPSVFPLAPSSKSTSGGTAALGCLVKDYFPEPVTVSWNSGALTSGVHTFPAVLQSSGLYSLSSVVTVPSSSLGTQTYICNVNHKPSNTKVDKKVEPKSCDKTHTCPPCPAPEAAGGPSVFLFPPKPKDTLMISRTPEVTCVVVDVSHEDPEVKFNWYVDGVEVHNAKTKPREEQYNSTYRVVSVLTVLHQDWLNGKEYKCKVSNKALPAPIEKTISKAKGQPREPQVYTLPPSREEMTKNQVSLTCLVKGFYPSDIAVEWESNGQPENNYKTTPPVLDSDGSFFLYSKLTVDKSRWQQGNVFSCSVMHEALHNAYTQKSLSLSPGK light: DTVLTQSPATLSLSPGERATLSCRASESVSTHMHWYQQKPGQAPRLLIYGASNLESGVPARFSGSGSGTDFTLTISSLEPEDFAVYFCQQSWNDPFTFGQGTKLEIKRTVAAPEFVLTQSPGTLSLSPGERATLSCERSSGDIGDSYVSWYQQKPGQAPRLVIYADDQRPSGIPDRFSGSGSGTDFTLTISRLEPEDFAVYYCQSYDINIDIVFGGGTKVEIKRTVAAPSVFIFPPSDEQLKSGTASVVCLLNNFYPREAKVQWKVDNALQSGNSQESVTEQDSKDSTYSLSSTLTLSKADYEKHKVYACEVTHQGLSSPVTKSFNRGEC	–	Potency IC50 (nM) cynoPDGF-BB (NIH-3T3 proliferation) [4]: 0.094 nM; Potency IC50 (nM) mPDGF-BB (NIH-3T3 proliferation) [5]: 0.14 nM

The next lines start with results.

IC50 [1] [nM]	Binder	also measured
0.13	BED-4G10-C8 (antibody, V domains shown, Rat hybridoma anti-human VEGF-A monoclonal antibody, isotype IgG2b/kappa) VH: QVQLQQSGTELVKPGSSVKISCKASGYTFTSNYMHWIRQQPGNGLEWIGWIYPGDGDTNYNHNFNGKATLTADKSSSTAYMQLSSLTSEDFAVYFCASSTRAIPGWFTYWGQGTLVTVSS VL: DTVLTQSPALAVSPGERVSISCWASESVSTLMHWYQQKLGQQPKLLIYGASNLESGVPARFRGSGSGTDFTLTIDPVEADDTATYFCQQSWSDPYTFGAGTKLELK	–
0.13	BDB-4G8-D4 (antibody, V domains shown, Rat hybridoma anti-human VEGF-A monoclonal antibody, isotype IgG2b/kappa) VH: QIQLVQSGPELKKPGESVKISCKASGYTFTNYGMYWVKQAPGQGLQYMGWINTETGKPTYADDFKGRFVFFLETSASTAYLQINNLKNEDMATYFCARTNYYYRSYIFYFDYWGQGTMVTVSS VL: DTVLTQSPALAVSPGERVSISCRASESVSTHMHWYQQKPGQQPKLLIYGASNLESGVPARFSGSGSGTDFTLTIDPVEADDTATYFCQQSWNDPFTFGAVTKLELK	–
0.155	BEW-9C2-D6 (antibody, V domains shown, Rat hybridoma anti-human VEGF-A monoclonal antibody, isotype IgG2b/kappa) VH: QIQLVQSGPELKKPGESVKVSCKASGYTFTNYGIHWVKQAPGQGLQYVGWINTETGRPTYADDFKGRFVFFLETSASTAYLQINNLKNEDMATYFCARPLYYGYAHYFDYWGQGVMVTVSS VL: DIQMTQSPASLSASLEEIVTITCQASQDIGNWLAWYQQKPGKSPQLLIYGATSLADGVPSRFSGSRSGTQYSLKISRLQVEDIGIYYCQQASSVTYTFGAGTKLELK	–
0.127	BEW-9D2-E8 (antibody, V domains shown, Rat hybridoma anti-human VEGF-A monoclonal antibody, isotype IgG2a/kappa) VH: QIQLVQSGPELKKPGESVKISCKASGYTFTNYGMYWVKLAPGQGLQYLGWINTETGKPTYADDFKGRFVFFLETSASTAYLQINNLRNEDMATYFCARPSDYYDGFWFAYWGQGTLVTVSS VL: DTVLTQSPALTVSPGERVSISCRASEWVNSYMHWYQQNPGQQPKLLIYKASNLASGVPARFSGSGSGTDFTLTLDPVEADDTATYFCQQSWNDPLTFGSGTKLEIK	–
0.124	BEW-3A1-D10-G9 (antibody, V domains shown, Rat hybridoma anti-human VEGF-A monoclonal antibody, isotype IgG2b/kappa) VH: QVQLEQSGAELVKPGTSVKLSCMASGYTSSSNHMNWMKQTTGQGLEWIGIINPGSGGTRYNVKFEGKATLTVDKSSSTAFMQLNSLTPEDSAVYYCARAGFPGPFSYYAMGAWGQGTSVTVSS VL: DIQMTQSPPVLSASVGDRVTLSCKASQNIHNNLDWYQQKHGEAPKLLIFYTNNLQTGIPSRFSGSGSGTDYTLTISSLQPEDVATYYCYQYNSGYTFGAGTKLELK	–
